Among the data in publication PMC6880876 are Kd values, retold here.

This assay has as its target end-binding protein 3 (EB3), full-length, recombinant (UniProt Q9UPY8). Put plainly: ELISA.
UniProt Q9UPY8, sequence (Q9UPY8 whole entry): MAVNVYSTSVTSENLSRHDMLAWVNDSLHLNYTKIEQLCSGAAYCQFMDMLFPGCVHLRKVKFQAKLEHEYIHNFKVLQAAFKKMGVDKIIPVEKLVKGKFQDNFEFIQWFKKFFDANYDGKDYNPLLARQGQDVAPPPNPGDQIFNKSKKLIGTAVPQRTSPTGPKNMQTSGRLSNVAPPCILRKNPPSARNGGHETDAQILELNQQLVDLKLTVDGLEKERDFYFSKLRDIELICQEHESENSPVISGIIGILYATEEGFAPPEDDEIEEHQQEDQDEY

Turning to “full-length WT tau (0N4R) (from UniProt P10636-6 1-383) (natural protein)”, the Kd is 22 nM.

For orientation: Kd means a measure of binding affinity in units of concentration.
